Assay results published in article PMC9522360, “Bidirectional sequestration between a bacterial hibernation factor and a glutamate metabolizing protein” (Proceedings of the National Academy of Sciences of the …, 2022).

Molecular target: the molecule itself
Experiment: SEC; size-exclusion chromatography of recombinant YwlG

B1: recombinant YwlG (natural protein, S. aureus)
chain: KDLTMLLDELKDMSFFNKGDICLIGCSTSEVIGEKIGTVGSMEVAETIFNALDVVSKETGVTFAFQGCEHINRAITIEKSQYNPLTMEEVSVVPDVHAGGSLATYAFQHMKDPIVVEHITVPCGIDIGQTLIGMHIKHVCVPVRTSVKQVGQAIVTIATSRPKKIGGERAKYQ
modifications: C69 was oxidized in the crystals
notes: YwlG of Staphylococcus aureus, 174 a.a., locus tag SAUSA300_2068; also called S. aureus YwlG; source: E. coli, purified (described in SI Appendix)
  stoichiometry N: 6
